We go through two proteins from PMC3090473 (Methods (San Diego, Calif.), 2010).

This data set deals with the molecule itself. The data set can be described thus: AUC.

B1: Un-tagged Gal80 protein (natural protein, Saccharomyces cerevisiae, UniProt P04387 1-435, looked up)
chain: MDYNKRSSVSTVPNAAPIRVGFVGLNAAKGWAIKTHYPAILQLSSQFQITALYSPKIETSIATIQRLKLSNATAFPTLESFASSSTIDMIVIAIQVASHYEVVMPLLEFSKNNPNLKYLFVEWALACSLDQAESIYKAAAERGVQTIISLQGRKSPYILRAKELISQGYIGDINSIEIAGNGGWYGYERPVKSPKYIYEIGNGVDLVTTTFGHTIDILQYMTSSYFSRINAMVFNNIPEQELIDERGNRLGQRVPKTVPDHLLFQGTLLNGNVPVSCSFKGGKPTKKFTKNLVIDIHGTKGDLKLEGDAGFAEISNLVLYYSGTRANDFPLANGQQAPLDPGYDAGKEIMEVYHLRNYNAIVGNIHRLYQSISDFHFNTKKIPELPSQFVMQGFDFEGFPTLMDALILHRLIESVYKSNMMGSTLNVSNISHYSL
Take B1: the binding result is reported as “binds”.

B2: Un-tagged Gal3 protein (natural protein, Saccharomyces cerevisiae, UniProt P13045 1-520, looked up)
chain: MNTNVPIFSSPVRDLPRSFEQKHLAVVDAFFQTYHVKPDFIARSPGRVNLIGEHIDYCDFSVLPLAIDVDMLCAVKILDEKNPSITLTNADPKFAQRKFDLPLDGSYMAIDPSVSEWSNYFKCGLHVAHSYLKKIAPERFNNTPLVGAQIFCQSDIPTGGGLSSAFTCAAALATIRANMGKNFDISKKDLTRITAVAEHYVGVNNGGMDQATSVYGEEDHALYVEFRPKLKATPFKFPQLKNHEISFVIANTLVKSNKFETAPTNYNLRVIEVTVAANALATRYSVALPSHKDNSNSERGNLRDFMDAYYARYENQAQPWNGDIGTGIERLLKMLQLVEESFSRKKSGFTVHEASTALNCSREEFTRDYLTTFPVRFQVLKLYQRAKHVYSESLRVLKALKMMTSATFHTDEDFFTDFGRLMNESQASCDKLYECSCIETNQICSIALANGSFGSRLTGAGWGGCTIHLVPSGANGNVEQVRKALIEKFYNVRYPDLTDEELKDAIIVSKPALGTCLYEQ
Consider B2, for which the binding result is on record as “binds”.
